B1: HDV Ribozyme (parent)
chain: GGCCGGCAUGGUCCCAGCCUCCUCGCUGGCGCCGGCUGGGCAACAUUCCGAGGGGACCGUCCCCUCGGUAAUGGCGAAUGGGACCCA

The variants in this data set derive from B1. The data set can be described thus: self-cleavage, relative activity (ratio to wild type); higher = more cleavage; co-transcriptional.
With GGCCGGCGUGGUCCCAGCCUCCUCACUGGCGCCGGCUGGGCAACAUUCCGAGGGGACCGUCCCCUCGGUAAUGGCGAAUGGGACCCA [A8G G25A], the self-cleavage turned out to be 0.0639. For GGCCGGCAUGGUCCCAGCCGCCUCGCUGGCGCCGGCUGGGCAACAUUCCGAGGGGACCGUCCCCUCGGUAAUGGCGAAUGGGACCAA [U20G C86A] the value was 0.237; for GGCCGGCAUGGUCCCAGCCUCCUCGCUGGCGCCGGCUGGGCAACAUUCCGAGGGGACCGUCCCCUCGGUAAUGGCGAAUGAGGCCCA [G81A A83G], 0.236; for GGCCGGCAUGGUCCCAGCCUCCUCGCUGGCGCCGGCUGGGCAACAUUCCGAGGGGACCGUCCCCUCUGUAAUGGCGUAUGGGACCCA [G67U A77U], 0.681.

For GGCCGGCAUGGUCCCAGCCUCCUCGCUGGCGCCGGCUGGGCAACAUUCCGAGGUGACUGUCCCCUCGGUAAUGGCGAAUGGGACCCA [G54U C58U], the self-cleavage was 0.94. With GGCCGGCAUGGUCCCAGCCUCCUCGCUGGCGGCGGCUGGGCAACAUUCCGAGGGGACCGUCCCCUCGGUAAUGGCGGAUGGGACCCA [C32G A77G] the figure was 0.0475. As to GGCCGGCAUGGUCCCAGCCUCCUCGGUGGCGCCGGCUGGUCAACAUUCCGAGGGGACCGUCCCCUCGGUAAUGGCGAAUGGGACCCA [C26G G40U], the self-cleavage is 0.9. On to GGCCGGCAUGGUCCCAGCCUCCUCGCUGGCGCCGGCUGGGCAACAUUCCGAGGGGACCCUACCCUCGGUAAUGGCGAAUGGGACCCA [G59C C61A], for which the self-cleavage was 0.969.

Take GGCCGGCAUGGUCCCAGCCUCCUCGCGGGCGCCGGCUGGGCAACAUUCCGAGGGGACCGUCCCCUCAGUAAUGGCGAAUGGGACCCA [U27G G67A]: the self-cleavage is 1.1.

On to GGCCGGCAUGGUCCCAGCCUCCUCGCUGGCGCCGGCUGGGCAACAUUCCGAGGGGACCGUCCCCACGGUAAUGGUGAAUGGGACCCA [U65A C75U], for which the self-cleavage is 0.277. GGCCGGCAUGGUCCCAACCUCCUCGCUGGCGCCGGCUGGGCAACAUUCCGAGGGGACCGUCCCCUCGGUAAUGGCGAAUGGGACCCC [G17A A87C]: the self-cleavage worked out at 0.716.

In the case of GGCCGGCAUGGUCCCAGCCUCCUCGCUGGCGCAGGCUGGGCAACAUUCCGAGGGGACCGUCCCCUCGGUAAUGGCGAAUGGGACCCA [C33A], the self-cleavage came to 0.29. With GGCCGGCAUGGUCCCAGCCUCCACGCUGGCGCCGGCUGGGCAACAUUCCGAGGGGACCGUCCCCUCGGUAAUGGCGAAUGGCACCCA [U23A G82C] the figure was 0.326; with GGCCGGCAUGGUCUCAGCCUCCUCGCUGGCGCCGGCUGGGCAACAUUCCGAGGGGACCGUCCCCUCGGUAAUGGCGAAUGGGAACCA [C14U C84A], 0.643; with GGCCGGCAUGGUCCCAGCCUCCUCGCUGGCGCCGGCUGGGCAACAUUCCGAGGGGACCGUCCCCUCGGUAAUGGCGAGUGGGACGCA [A78G C85G], 0.539. For GGCCGGCAUGGUCCCAGCCUCCUCGCUGGCGCCGGCUGGGCAAAAUCCCGAGGGGACCGUCCCCUCGGUAAUGGCGAAUGGGACCCA [C44A U47C] the value was 0.831; for GGCCGGCAUGGUCCCAGUCUCCUCGCUGGCGCCGGCUGGGCAUCAUUCCGAGGGGACCGUCCCCUCGGUAAUGGCGAAUGGGACCCA [C18U A43U], 0.138. With GGCCGGCAUGGUCUCAGCCUCCUCGCUGGCGCCGGCUGGGCAACAUUCCGAGGGGACCGUCCCCUCGGUAAUGGCGAAUGGGACACA [C14U C85A] the figure was 0.978. For the variant GGCCGGCAUGGUCCCAGCCUCCUCGCUGGCGCCGGCUGGGCAACAUUCCGAGGGGACCGUCCCCUCGCUAAUCGCGAAUGGGACCCA [G68C G73C], the self-cleavage came out at 0.0511. For GGCCGGCAUGGUCCCAGCCUCCUCGCUGGCGCCGGCUGGGCAACAUUCCGAGGGGACCGUCCCCCCGGUAAUGGCGAAAGGGACCCA [U65C U79A] the value was 0.644; for GGCCGGAAUGGUCCCAACCUCCUCGCUGGCGCCGGCUGGGCAACAUUCCGAGGGGACCGUCCCCUCGGUAAUGGCGAAUGGGACCCA [C7A G17A], 0.0475. Turning to GGCCGGCAUGGUCCCAGCCUUCUCGCUGGCGCCGGCUGGUCAACAUUCCGAGGGGACCGUCCCCUCGGUAAUGGCGAAUGGGACCCA [C21U G40U], the self-cleavage stood at 0.0764. As for GGCCGGCAUGGUUCCAGCCUCCUCGCCGGCGCCGGCUGGGCAACAUUCCGAGGGGACCGUCCCCUCGGUAAUGGCGAAUGGGACCCA [C13U U27C], the self-cleavage turned out to be 0.615. GGCCGGCAUGGUCCCAGCCUCCUCGCUGGCGCCCGCUGGGCAACAUUCCGAGGGGACCGUCCCCUCGGUAAUGGCGAAUGGGACUCA [G34C C85U]: the self-cleavage was 0.277. For GGCCGGCAUGGUCCCCGCCUCCUCGCUGGCGCCGGCUGGGCAACAUUCCGAGGGGACCGGCCCCUCGGUAAUGGCGAAUGGGACCCA [A16C U60G] the value was 0.939; for GGCCGGCAUGGUCCCAGCCUCCUCGGUGGCGCCGGCUGGGCAACAUUUCGAGGGGACCGUCCCCUCGGUAAUGGCGAAUGGGACCCA [C26G C48U], 0.877. Take GGCCGGCAUGGUACCAGCCUCCUCGCUGGCGCCGGCUGGGCAACAUUCCGAGGGGACCGUCCCCUCCGUAAUGGCGAAUGGGACCCA [C13A G67C]: the self-cleavage came out at 0.259. With GGCCGGCAUGGACCCAGCCUCCUCGCUGGGGCCGGCUGGGCAACAUUCCGAGGGGACCGUCCCCUCGGUAAUGGCGAAUGGGACCCA [U12A C30G] the figure was 0.131; with GGCCGGCAUGGUCCCAGCCUCCUCGCUGGCGCCGGCUGCGCAACAUUCCGAGGGGACCGUCCCCUCGGUAAUGGCGAAUGGGACCCC [G39C A87C], 0.323; with GGCCGGCAUGGUCCCAGCAUCCUCGCUGGCGCCGGCUGGGCAACAUUCCGAGGGGACCGUCCUCUCGGUAAUGGCGAAUGGGACCCA [C19A C63U], 0.1. As for GGCCGGCAUGUUCCCAGCCUCCUCGAUGGCGCCGGCUGGGCAACAUUCCGAGGGGACCGUCCCCUCGGUAAUGGCGAAUGGGACCCA [G11U C26A], the self-cleavage came to 0.689.

Consider GGCCGGCAUGGUCCCAGCCUCCUCGCUGGCGCUGGCUGCGCAACAUUCCGAGGGGACCGUCCCCUCGGUAAUGGCGAAUGGGACCCA [C33U G39C], for which the self-cleavage amounted to 0.
